Measured values reported in patent US20030082146A1.

Columns and labels:
[1] = biological target: anti-His single-chain antibody (scFv) artificial receptor displayed on 293.HissFv.rec cells; experiment: cell-based or functional assay
[2] = biological target: TSFLCmychis knobless fiber protein (adenovirus serotype 5 (Ad5); Moloney Murine Leukemia Virus) (UniProt P11818); experiment: antibody-mediated virus capture on 9E10-coated plates, read out by GFP expression in 293.HissFv.rec cells (FACS)
[3] = biological target: wild-type Ad5 fiber (adenovirus serotype 5 (Ad5)) (UniProt P11818); experiment: as above

| Substance | gene transfer (EGFP expression) by AdGFP-TSFLCmychis into 293.HissFv.rec cells in the presence of the anti-fiber knob antibody [1] | percent functional virus bound (relative to binding to 1D6.14) [2] | percent functional virus bound (relative to binding to 1D6.14) [3] |
| --- | --- | --- | --- |
| TSFLCmychis knobless fiber protein (from UniProt P11818 1-403; P03385 514-553) | > 10% | – | – |
| anti-Myc MoAb 9E10 (antibody) | – | 2.3% | 0.2% |
